These results are taken from US20210087238A1, “CELL PENETRATING PEPTIDES AND RELATED COMPOSITIONS AND METHODS” (Phylogica Limited, priority 2017, published 2021).

The target of this assay is MDM2 (UniProt Q00987). The assay is described as follows: cell-based or functional assay.
Sequence of UniProt Q00987 (Q00987 whole entry): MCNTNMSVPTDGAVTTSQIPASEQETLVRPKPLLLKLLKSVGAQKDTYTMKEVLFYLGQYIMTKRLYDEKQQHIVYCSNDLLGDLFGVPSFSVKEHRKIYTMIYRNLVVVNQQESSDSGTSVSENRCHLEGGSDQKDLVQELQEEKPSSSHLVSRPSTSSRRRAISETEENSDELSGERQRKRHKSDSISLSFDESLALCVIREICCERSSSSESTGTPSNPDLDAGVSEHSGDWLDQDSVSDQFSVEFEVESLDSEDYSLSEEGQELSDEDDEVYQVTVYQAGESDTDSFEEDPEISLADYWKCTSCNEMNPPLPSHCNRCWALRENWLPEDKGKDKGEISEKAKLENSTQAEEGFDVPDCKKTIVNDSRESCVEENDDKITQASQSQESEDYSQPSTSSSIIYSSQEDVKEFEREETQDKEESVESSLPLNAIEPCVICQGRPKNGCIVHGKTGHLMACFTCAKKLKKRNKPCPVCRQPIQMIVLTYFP

In turn, TAT_^DPMIα (peptide) returned an IC50, viability of T47D cells after 48 h (resazurin reduction) of 36.6 µM.
